Laboratory results taken from publication PMC3174691 (Journal of molecular biology, 2008).

Biological target: T1, E. coli RecB (E. coli, UniProt P08394 1-1180)
T1 sequence (looked up): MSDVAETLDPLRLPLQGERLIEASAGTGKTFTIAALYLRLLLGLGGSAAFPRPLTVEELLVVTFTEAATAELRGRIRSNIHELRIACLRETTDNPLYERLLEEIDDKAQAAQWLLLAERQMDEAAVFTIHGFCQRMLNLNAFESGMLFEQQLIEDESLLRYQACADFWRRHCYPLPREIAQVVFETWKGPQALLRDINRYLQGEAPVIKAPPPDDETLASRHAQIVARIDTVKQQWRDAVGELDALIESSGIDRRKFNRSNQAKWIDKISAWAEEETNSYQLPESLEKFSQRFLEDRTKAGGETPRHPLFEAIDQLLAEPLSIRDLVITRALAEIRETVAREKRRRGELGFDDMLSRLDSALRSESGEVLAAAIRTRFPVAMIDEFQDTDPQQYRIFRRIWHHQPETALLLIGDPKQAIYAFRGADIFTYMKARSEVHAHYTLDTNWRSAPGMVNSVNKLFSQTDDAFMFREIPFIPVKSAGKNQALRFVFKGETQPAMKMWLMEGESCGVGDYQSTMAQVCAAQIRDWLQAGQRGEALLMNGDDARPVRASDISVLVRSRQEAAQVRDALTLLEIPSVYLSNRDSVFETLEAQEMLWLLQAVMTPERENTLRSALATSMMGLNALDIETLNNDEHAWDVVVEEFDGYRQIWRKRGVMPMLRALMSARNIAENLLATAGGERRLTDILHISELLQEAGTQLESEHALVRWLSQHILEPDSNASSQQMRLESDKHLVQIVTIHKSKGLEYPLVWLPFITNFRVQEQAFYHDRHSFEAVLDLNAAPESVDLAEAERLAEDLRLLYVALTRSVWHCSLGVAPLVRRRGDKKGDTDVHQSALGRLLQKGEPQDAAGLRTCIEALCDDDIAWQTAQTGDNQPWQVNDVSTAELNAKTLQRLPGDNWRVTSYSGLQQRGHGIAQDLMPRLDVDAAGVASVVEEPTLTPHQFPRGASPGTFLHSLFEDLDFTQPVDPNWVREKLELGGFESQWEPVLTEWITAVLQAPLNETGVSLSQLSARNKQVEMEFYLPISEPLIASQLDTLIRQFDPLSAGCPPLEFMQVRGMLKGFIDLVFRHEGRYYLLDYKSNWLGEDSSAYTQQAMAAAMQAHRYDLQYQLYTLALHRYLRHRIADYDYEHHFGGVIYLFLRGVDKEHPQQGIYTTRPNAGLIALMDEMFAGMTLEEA
Assay: reconstitution of the complex by mixing

B1: E. coli RecC (natural protein, UniProt P07648 1-1122, looked up)
chain: MLRVYHSNRLDVLEALMEFIVERERLDDPFEPEMILVQSTGMAQWLQMTLSQKFGIAANIDFPLPASFIWDMFVRVLPEIPKESAFNKQSMSWKLMTLLPQLLEREDFTLLRHYLTDDSDKRKLFQLSSKAADLFDQYLVYRPDWLAQWETGHLVEGLGEAQAWQAPLWKALVEYTHQLGQPRWHRANLYQRFIETLESATTCPPGLPSRVFICGISALPPVYLQALQALGKHIEIHLLFTNPCRYYWGDIKDPAYLAKLLTRQRRHSFEDRELPLFRDSENAGQLFNSDGEQDVGNPLLASWGKLGRDYIYLLSDLESSQELDAFVDVTPDNLLHNIQSDILELENRAVAGVNIEEFSRSDNKRPLDPLDSSITFHVCHSPQREVEVLHDRLLAMLEEDPTLTPRDIIVMVADIDSYSPFIQAVFGSAPADRYLPYAISDRRARQSHPVLEAFISLLSLPDSRFVSEDVLALLDVPVLAARFDITEEGLRYLRQWVNESGIRWGIDDDNVRELELPATGQHTWRFGLTRMLLGYAMESAQGEWQSVLPYDESSGLIAELVGHLASLLMQLNIWRRGLAQERPLEEWLPVCRDMLNAFFLPDAETEAAMTLIEQQWQAIIAEGLGAQYGDAVPLSLLRDELAQRLDQERISQRFLAGPVNICTLMPMRSIPFKVVCLLGMNDGVYPRQLAPLGFDLMSQKPKRGDRSRRDDDRYLFLEALISAQQKLYISYIGRSIQDNSERFPSVLVQELIDYIGQSHYLPGDEALNCDESEARVKAHLTCLHTRMPFDPQNYQPGERQSYAREWLPAASQAGKAHSEFVQPLPFTLPETVPLETLQRFWAHPVRAFFQMRLQVNFRTEDSEIPDTEPFILEGLSRYQINQQLLNALVEQDDAERLFRRFRAAGDLPYGAFGEIFWETQCQEMQQLADRVIACRQPGQSMEIDLACNGVQITGWLPQVQPDGLLRWRPSLLSVAQGMQLWLEHLVYCASGGNGESRLFLRKDGEWRFPPLAAEQALHYLSQLIEGYREGMSAPLLVLPESGGAWLKTCYDAQNDAMLDDDSTLQKARTKFLQAYEGNMMVRGEGDDIWYQRLWRQLTPETMEAIVEQSQRFLLPLFRFNQS
binding result: binds
